# Measured values taken from patent publication CN113667018A.
# B1: BR2-抗p21Ras单链抗体融合蛋白 (scFv, V domains shown, not shown: small tags and cut ends)
# VH: QVKLQESGEGLVKPGGSLKLSCAASGFTFSDYYMYWVRQTPEKRLEWVAIISDGGSYTYYPDSVKGRFTISRDNTKKNLYLQMSSLRSEDTAMYYCARDPHYSGSSRLFVNWGQGTTVTVSS
# Target: N-Ras蛋白 (UniProt P01111)
# Test: indirect ELISA; N-Ras coated at 5 ug/ml, fusion protein diluted 1:100 to 1:3200, anti-His-tag antibody then HRP goat anti-mouse IgG, OD450
# Conditions: scale: dilution factor
# Sequence of UniProt P01111 (P01111 whole entry, the tested form may be a part): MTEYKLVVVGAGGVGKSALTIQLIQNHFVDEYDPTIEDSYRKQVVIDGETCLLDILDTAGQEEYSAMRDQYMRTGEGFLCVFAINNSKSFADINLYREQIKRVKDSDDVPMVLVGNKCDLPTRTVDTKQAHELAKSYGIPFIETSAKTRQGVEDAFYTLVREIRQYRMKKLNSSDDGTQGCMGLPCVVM
binder,measurement,value
B1,结合效价 (ELISA titer),800
